For this assay, the target named is T1, murine FAP (murine, UniProt P97321 27-761, limits assumed).
T1 construct: also called mouse FAP; murine FAP (Analyte 2)
Put plainly: SPR (Biacore T200, 25 C, HBS-EP), simultaneous binding; muFAP-4-1BB held on immobilized murine 4-1BB Fc(kih); murine FAP 500 nM as second analyte, 30 uL/min, 90 s, dissociation 120 s.

The values below come from US20200325225A1 (Hoffmann-La Roche, published 2020).

T1 sequence (P97321 27-761 limits assumed): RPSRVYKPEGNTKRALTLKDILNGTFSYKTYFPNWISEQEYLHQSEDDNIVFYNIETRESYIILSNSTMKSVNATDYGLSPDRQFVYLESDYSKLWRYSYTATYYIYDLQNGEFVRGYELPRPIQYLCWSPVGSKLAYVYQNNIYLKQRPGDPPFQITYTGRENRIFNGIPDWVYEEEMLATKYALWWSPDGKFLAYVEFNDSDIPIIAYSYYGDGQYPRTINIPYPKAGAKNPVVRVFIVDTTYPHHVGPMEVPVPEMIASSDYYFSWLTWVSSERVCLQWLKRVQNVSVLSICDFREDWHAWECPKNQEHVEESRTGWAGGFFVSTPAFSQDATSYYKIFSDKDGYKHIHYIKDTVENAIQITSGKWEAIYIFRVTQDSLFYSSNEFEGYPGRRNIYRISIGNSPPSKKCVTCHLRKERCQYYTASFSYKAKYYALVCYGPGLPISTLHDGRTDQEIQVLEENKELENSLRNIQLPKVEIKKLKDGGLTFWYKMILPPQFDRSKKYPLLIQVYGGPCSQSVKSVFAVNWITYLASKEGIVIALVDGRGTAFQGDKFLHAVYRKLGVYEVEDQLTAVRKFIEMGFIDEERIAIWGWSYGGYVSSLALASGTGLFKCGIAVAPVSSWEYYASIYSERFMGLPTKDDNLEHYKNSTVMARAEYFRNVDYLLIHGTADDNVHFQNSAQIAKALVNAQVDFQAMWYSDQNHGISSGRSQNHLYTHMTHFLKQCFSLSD
Experimental: All SPR experiments were performed on a Biacore T200 at 25° C. with HBS-EP as running buffer (0.01 M HEPES pH 7.4, 0.15 M NaCl, 3 mM EDTA, 0.005% Surfactant P20, Biacore, Freiburg/Germany). […] Immobilization levels up to 600 resonance units (RU) were used.
Murine FAP was injected as second analyte with a flow of 30 μL/minute through the flow cells over 90 seconds at a concentration of 500 nM. The dissociation was monitored for 120 sec. Bulk refractive index differences were corrected for by subtracting the response obtained in a reference flow cell, where no protein was immobilized.

B1: 4-1BB (MU137-1)/FAP(28H1) DAPG IgG1 2+1 (Fc-DD-VL) (bispecific antibody)
heavy 1: DVQLVESGGGLVQPGRSLKLSCAASGFIFSYFDMAWVRQAPTKGLEWVASISPSGDIPYYRDSVKGRFTVSRENAKSSLYLQMDSLRSEDTATYYCARRSYGGYSELDYWGQGVMVTVSSAKTTPPSVYPLAPGSAAQTNSMVTLGCLVKGYFPEPVTVTWNSGSLSSGVHTFPAVLQSDLYTLSSSVTVPSSTWPSQTVTCNVAHPASSTKVDKKIVPRDCGCKPCICTVPEVSSVFIFPPKPKDVLTITLTPKVTCVVVAISKDDPEVQFSWFVDDVEVHTAQTKPREEQINSTFRSVSELPIMHQDWLNGKEFKCRVNSAAFGAPIEKTISKTKGRPKAPQVYTIPPPKEQMAKDKVSLTCMITNFFPEDITVEWQWNGQPAENYDNTQPIMDTDGSYFVYSDLNVQKSNWEAGNTFTCSVLHEGLHNHHTEKSLSHSPGGGGGSGGGGSGGGGSGGGGSEIVLTQSPGTLSLSPGERATLSCRASQSVSRSYLAWYQQKPGQAPRLLIIGASTRATGIPDRFSGSGSGTDFTLTISRLEPEDFAVYYCQQGQVIPPTFGQGTKVEIK
heavy 2: DVQLVESGGGLVQPGRSLKLSCAASGFIFSYFDMAWVRQAPTKGLEWVASISPSGDIPYYRDSVKGRFTVSRENAKSSLYLQMDSLRSEDTATYYCARRSYGGYSELDYWGQGVMVTVSSAKTTPPSVYPLAPGSAAQTNSMVTLGCLVKGYFPEPVTVTWNSGSLSSGVHTFPAVLQSDLYTLSSSVTVPSSTWPSQTVTCNVAHPASSTKVDKKIVPRDCGCKPCICTVPEVSSVFIFPPKPKDVLTITLTPKVTCVVVAISKDDPEVQFSWFVDDVEVHTAQTKPREEQINSTFRSVSELPIMHQDWLNGKEFKCRVNSAAFGAPIEKTISKTKGRPKAPQVYTIPPPKKQMAKDKVSLTCMITNFFPEDITVEWQWNGQPAENYKNTQPIMKTDGSYFVYSKLNVQKSNWEAGNTFTCSVLHEGLHNHHTEKSLSHSPGGGGGSGGGGSGGGGSGGGGSEVQLLESGGGLVQPGGSLRLSCAASGFTFSSHAMSWVRQAPGKGLEWVSAIWASGEQYYADSVKGRFTISRDNSKNTLYLQMNSLRAEDTAVYYCAKGWLGNFDYWGQGTLVTVSS
light: DIQMTQSPASLSASLEEIVTITCQASQDIGNWLAWYHQKPGKSPQLLIYGTSSLADGVPSRFSGSSSGSQYSLKISRLQVEDIGIYYCLQAYGAPWTFGGGTKLELKRADAAPTVSIFPPSSEQLTSGGASVVCFLNNFYPKDINVKWKIDGSERQNGVLNSWTDQDSKDSTYSMSSTLTLTKDEYERHNSYTCEATHKTSTSPIVKSFNRNEC
notes: It is a mouse IgG1 with DAPG (D265A, P329G) and DD/KK heterodimerisation mutations, bivalent for mouse 4-1BB and monovalent for FAP; also called muFAP-4-1BB; mouse surrogate muFAP-4-1BB
For the molecule B1, the binding result is given as “binds”.
